Experimental data reported in paper PMC8324831 (2021).
Positions count from the first letter of the chain named.

B1: sybody SR4 (VHH)
VHH: QVQLVESGGGLVQAGGSLRLSCAASGFPVYSWNMWWYRQAPGKEREWVAAIESHGDSTRYADSVKGRFTISRDNAKNTVYLQMNSLKPEDTAVYYCYVWVGHTYYGQGTQVTVS
modifications: biotin by an amine-reactive crosslinker (only where immobilised on the SA sensor)
B2: sybody LR1 (VHH)
VHH: QVQLVESGGGSVQAGGSLRLSCAASGSISSITYLGWFRQAPGKEREGVAALITDSGRTYYADSVKGRFTVSLDNAKNTVYLQMNSLKPEDTALYYCAAAEWGYEWPLYYASSWYWGQGTQVTVS
B3: sybody LR5 (VHH)
VHH: B2 VHH with D54S, S55N, E100T, E104H, Y108G, Y109A, A110W, S111D, S112Y
B4: sybody MR4 (VHH)
VHH: QVQLVESGGGLVQAGGSLRLSCAASGFPMYAWEMAWYRQAPGKEREWVAAIRSMGVHTHYSDSVKGRFTISRDNAKNTVYLQMNSLKPEDTAVYYCNVKDFGGHQAYYDYWGQGTQVTVS
B5: sybody MR17 (VHH)
VHH: QVQLVESGGGLVQAGGSLRLSCAASGFPVEVWRMEWYRQAPGKEREGVAAIESYGHGTRYADSVKGRFTISRDNAKNTVYLQMNSLKPEDTAVYYCNVKDDGQLAYHYDYWGQGTQVTVS
modifications: biotin by an amine-reactive crosslinker (only where immobilised on the SA sensor)

Each binder was assayed against T1, SARS-CoV-2 S-RBD with Avi-tag and deca-His tag (residues 330-531) (SARS-CoV-2, UniProt P0DTC2 330-531) (assay: BLI).

Compared with B1, B2 is 3.3-fold higher in Kd: 14.5 nM for the first, 47.5 nM for the second.

B3 and B4 are within 1.5-fold of each other in Kd: 22.8 nM for the first, 23.3 nM for the second.

Target: T1, SARS-CoV-2 S-RBD with Avi-tag and …
Experiment: BLI
Remark: another data set of the same source

Compared with B1, B2 is 6.9-fold higher in koff: 0.0014 s⁻¹ for the first, 0.0096 s⁻¹ for the second.

Compared with B5, B3 is 3-fold lower in koff: 0.0097 s⁻¹ for the first, 0.0032 s⁻¹ for the second.

B4 gave a koff of 0.0064 s⁻¹.
